Test results taken from the nanobody polyreactivity screen of Harvey et al. (2022).

Assay: yeast display, Sf9 membrane polyspecificity reagent, FACS + sequencing; frameworks hold sequencing errors
How it was run: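 Nanobodies from a synthetic yeast display library (Saccharomyces cerevisiae BJ5465), induced 36–48 hours with galactose, were stained 1 hour at 4 °C with 10% biotinylated, detergent-solubilized Sf9 membrane reagent, enriched on streptavidin microbeads, then FACS-sorted. Anti-HA (expression) and streptavidin (reagent binding) fluorescence set low and high (top ~1%) gates. Polyreactivity labels come from the gate of origin. Genes were colony-PCR amplified, MiSeq 2 × 250 sequenced and filtered by CDR length.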

Row | Sequence | polyreactivity (PSR sort gate)
1 | KVQLVESGGGLVQAGGSLRLSCAASGSIFDYYAMGWYRQAPGKEREFVAAISISGGSTNYADSVKGRFTISRDNAKNTVYLQMNSLKPEDTAVYYCAATSRWSSYGFYVQYNYWGQGSQVTVSS | high polyreactivity
2 | QVQLVESGGGLDQAGGSLRLSCAASGFIFFQYAMGWYRQAPGKERELVAAISGSGVTTYYADSVKGRFTISRDNAKNTVYLQMNSLKPEDTAVYYCAADTPPYYAYWDVSFEYYYWGQGTQVTVSS | low polyreactivity
3 | QVQLGESGGGLVQAGGSLRLSCAASGRIFSTYVMGLYRQAPGKERELVAAITRGGSTNYADSVKGRFTISRDNAKNTVYLQMNSLKPEDTADYYCNAQRRGTYYWGQGTQVTVSS | high polyreactivity
4 | QVQLVESGGGLVQAGGSLRLSCAASGIIFFSNAMGWYRQAPGKERELVAAITGGSSTNYADSVKGRFTISRDNAKNTVYLQMNSLKPEENAVYYCNAPTKSTPRSEPIPYYEFDYWGQGTQVTVSS | low polyreactivity
5 | QVQLVESGGGLVQAGGSLRLSCAASGSIFGGYAMGWYRQAPGKERELVAVISSGGSTNYADSVKGRFTISRDNAKNTVYLQMNSLKPEDTAVYYCAATVIYAYRGHFYQYDYWGQGTQVTVSS | high polyreactivity
6 | QVQLVESGGGLVQAGGSLRLTCAASGSTFTRYAMGWYRQAPGKERELVATIIFSGDRTYYADSVKGRFTISRDNAKNTVYLEMNSLKPEDTAVSYCNKYRYQWPYRRFDYWGQGTQVTVSS | high polyreactivity
7 | QVQLVESGGGLVQAGGSLRLSCAASGFTFNRNAMGWYRQAPGKERELVAAISWSGGSTYYADSVKGRFTISRDNAKYTVYLQMHSLKPEDTAVYYCAQGYRRVYGPFYYWGQGTQVTVSS | low polyreactivity
8 | QVQLGESGGGLVQAGGSLRLSCAASGSIIQQYAIGWYRQAPGKERELVAAISWGDGSTYYADSVKGRFTISRDNAKNTVYLQKNSLKPEDTAVYYCNAYASAPLWSLEDDYWGQGTQVTVSS | low polyreactivity
9 | QVHLVESGGGLVQAGGSLRLSCAASGRGYYALGWYRQAPGKERELVAAISRGGNTKYADSVKGRFTISRDNAKNSVYLQMNSLKPEDTAVYYCAAYAYSYELYYWGQGTQVTVSS | high polyreactivity
10 | QVQLVQSGGGLVQAGGSLRLSCAASGSIFGDYAMGWYRQAPGKEREFVARINVSGTSTFYADSVKGRFTISRDNAKNTVYLQMNSLKPEDTAVYYCAARGLPSNYYYYVHGYIMDYWGQGTQVTVSS | low polyreactivity
11 | QVHLVESGGGLVQAGGSLRLSCAASGRTFHYYAMGWYRQAPGKERELVAAISVSGGSTYYADSVKGRFTISRDNAKNTVYLQMNSLKPEDNAVYYCAADDYLVEHDYWGQGTQVTVSS | low polyreactivity
12 | QFQLVESGGGLVQAGGSLRLSCAASGFTFYLYAMGWYRQAPGKERELVAAIRGSGGSTYYADSVKGRFTISRDTAKNSVYLQMNSLKPEDTEVYYCAADYKVSASWYYAYTFYYWGQGTQVTVSS | low polyreactivity
13 | QVQLEESGGGLVQAGGSLRLSCAASGAIFYAYAMGCYRQATGKEREFVAAITRRGGNTYYADSVKGRFTISRDNAKNTVYVQMNSLKPEDTEVYYSAADAGGGTFDYWGHGTQVTVSS | low polyreactivity
14 | QVQLVESGGGIVQAGGSLRLICAASGSIFNGYALGWYRQAPGKERDLVAAISWRGGTTYYADSVKGRFSISRDTAKNTVYLQMNSLKPEDTAVYYCAARHFARMGYWGQGTQVTVSS | high polyreactivity
15 | QVQLVESGGGLVQAGGSLRLSCAASGRIFGFYAMGWYRQAPGKEREFVAAITWSGTNTYYADSVKGRFTISRDNAKNTVYLQMNSLKPEDTAVYYCNARQYYKYGYWGQGTQVTVSS | high polyreactivity
16 | QVQLVESGGGLVQAGGSLRLSCAASGRIFVPYVMGWYRQAPGKERELVASISDSDTSTYYADSVKGRFTISRDNAKNTVYLQMNCLKPEDTAVYYCNVDYWGQGTQVTVSS | low polyreactivity
17 | QVQLVDSGGGLVQAGGSLRLSCAASGSTFGSYAMGWYRQAPGKERELVAAISWNGGRTYYADSVKGRFTISRDNAKNTVYLQMNSLKPEDTAVYYCAKVVKYQSGGGLDYWGQGTQVTVSS | high polyreactivity
18 | QVQLVESGGGLVQAGGSLRLSCAASGFTFSLYAMGWYRQAPGKERELVASIDSDGVSTYYADSVKGRFTISRDNAKNTVYLQMNSLKPEDTAVYYCAADLWWGYISGPVRGRGYYWGQGTQVTVSS | low polyreactivity
19 | QVHLVESGGGLVQAGGSLRLSCAASGRTFGWNVMGWYRQAPGKERELVAAISGSGGSTYYADSVKGRFTISRDNAKNTVYLQMMSLKPEDTAVYYCAKEYPWMPRSYEYWGQGTQVTVSS | low polyreactivity
20 | QVQLVESGGGLVQAGGSLRLSCAASGRIFGKYMGWYRQAPGKERELVAAISRNGGRTYYADSVKGRFTISRDNAKNTVYLQMNCLNPEDTAVYYCAAASSRYDYWGQGTQVTVSS | high polyreactivity
21 | QVQIVESGGGLVQAGGSLRLICAASGSTFGLNAMGWYRQAPGKERELVAAITRSDITNYADSVKGRFTISRDNAKNTVYLKLNSLKPEDTAVYYCNKTPDRHRRYFGYGYWGQGTLVTVSS | low polyreactivity
22 | QVQLEESGGGLVQAGGSLRLSCAASGRTFRINDMGWYRQAPGKERELVATINSTGSTNYADSVKGRFTISRDNAKNTVYLQMNSLKPEDTAVYYCNAYLYYYRYHYNYWGQGTQVTVSS | low polyreactivity

Row | Sequence | polyreactivity (PSR sort gate)
23 | QVQLVESGVGLVQAGGSLRLSCAASGSSFTSNAMGSYRQAPGKEREFVAAISVGGGITYYADSVKGRFTISRDNAKNTVYLQMYSLKPEDTAVYYCAADGEYPHSEDFEYWGQGTQVTVSS | low polyreactivity
24 | QVQLVESGGGLVQAGGSLRLSGAASGRTFGSNDMGWYRQAHGKERELVAAISGRTDSTYYADSVKGRFTISRDIAKNTVYLQMNSLKPEDTAVYYCAADSADVLYYYIRYNYWGQGTQVTVSS | low polyreactivity
25 | QVQLVESGGGLVQAGGSLRLSCAASGFIIGSYAMGWYRQAPGKERELVAAISRRTTNTYYADSVKGRFTISRDNAKNTVYLQMNSLKPEDTAVYYCARVTWYESDYWGQGTQVTVSS | high polyreactivity
26 | QVQLVESGGGLVQAGGSLRLSCDASGIIFYYNAMGWYRQAPGKERELVDRINSGGSTNYADSVKGRFTISRDNAKNTVDFQMTSMKPEDTAVYYCAARVRRWSYYGALFEYWGQGTQVTVSS | low polyreactivity
27 | QVQLVESGGGLVQAGASLRLSCAPSASIFSYNAMGWYSQAPGKERELVAAIDWSGGSTYYADSVKGRFTISRDNAKNTVYLQMNSLKPEDTEVYYCNAVGVFYYSYHYHQSDYWGQGTQVTVSS | low polyreactivity
28 | QVQIVDSGGGLVQAGGRLRLTCAASGSTFYVYTMGWSRQAPGKESELFDRISSGGSTKYADSVKGRFTISRVNANNTVYLQMNILKPEDTAVYYCNADGLYLFGISYGKFLKYGHWGHGTQVTVSS | low polyreactivity
29 | QVQLVESGGGLVKAGGSLRLSCAASGRTFGWYVMGWYRQAPGKEMELVAAISLRGGTTYYADSVKGRFTISRDNAKNTVYLQMNSLNPEDTAVYYCAIAGIRHVTCKFKGYHFGYWGQGTQVTVSS | low polyreactivity
30 | QVQLVESGGGLVQAGGSLRLSCAASGRTFTYYAMGWYRQAPGKEREFVASISLSGGRTYYADSVKGRFTISRDNAKNTVYLQMNSLKPEDTAVYYCNAYYPRVHRSDYWGQGTQVTVSS | low polyreactivity
31 | QVQLVDSGGGLVQAGGSLSLSCAASGRTFNYKAMGWYRQAPGKERELVAAISWGGGSTFYADSVKGRFTISRDNAKNTVYLEMNSLKPEDTAVYYCAAYRQYGNRGAYYSWGQGTQVTVSS | low polyreactivity
32 | QVQLVESGGGLVQAGGSLRLSCAASGRIFYRYAMGWYRQAPGKERELVADITWRGGRTYYADSVKGRFTISRDNAKNTVYLQMNSLKPEDTAVYYCAATGGFYYWGQGTQVTVSS | low polyreactivity
33 | QVQLVESGGGLVQAGGSLRLSCAASGRIFGGYAMGWYRQAPGKERELVAVITDGGSTNYADSVKGRFTISRDNAKNTVYLQMNSLKPEDTAVYYCAADSYGDEPPYDYWGQGTQVTVSS | low polyreactivity
34 | QVQLVESGGGLVQAGGSLRLSCAASGSTFQWNTMGWYRQAPGKERELVARITGGGGSTYYADSVKGRFTISRDNAKNTVYLQMNSLKPEDTAVYYCNAAIFGRYEYWGQGTQVTVSS | low polyreactivity
35 | QVQLVESGGGLVQAGGSLRLSCAASGSTFGYYTMGWYRQAPGKERELVASIDVSGDSTSYADSVKGRFTISRDNAKNTVYVQMNSLKPEDTAVYYCNTGRYPTSPTHNYWGQGTHVTVSS | low polyreactivity
36 | QVQLVESGGGLVQAGGSLRLSCAASGSTLRGNAMGWYRQAPGKERELVAAISWSGGSTYYADSVKGRFTISRDNAKNTVYLQMNSLKPEDTAVYYRATASPSTRYGRLGDYWGQGTQVTVSS | low polyreactivity
37 | QVQLVESGGGLVQEGGSLRLICAASGRTFRHNVMGWYRQAPGKQRELVAAISYSGGSTHYADSVKGRFTISRDNAKYTVYLQMNSLKPVDTAVYYCNRYSYDSHFLYPFRGHDYWGQGTQVTVSS | low polyreactivity
38 | QVQLVESGGGLVQAGGSLRLSCAASGFIFGPYTMGWYRQAPGKERELVAAINNSGSTYYADSVKGRFTISRDNAKNTVYLQMNSLKPEDTAVYYCAAEPIIFVRYDYWGQGTQVTVSS | low polyreactivity
39 | QVQLVESGGGLVQAGGSLRLSCAASGSILEYYAMGWYRQAPGKERELVAGISSAGNTYYADSVKGRFTISRDNAKNTVYLQMNSLKPEDSAVYYCAAVPWSGEYDYWGQATQVTVSS | low polyreactivity
40 | QVQHVESGGGLGQAGGSLRLSCAASGRTFDGNVKGWYIQAPGKERELVAAMTASGARTYYADSVKRRFTISRDNAKNTVYLQMNSLKPEDTAVYYCAAVCRRVSAWYYYWGQGTQVTVSS | high polyreactivity
41 | QVQLVESGGGLVQAGGSLRLSCAASGIIFSTNAMGWYRQAPGKERELVAAISWDGSSTYYADSVKGRFTISRDNAKNTVYLQMNSLKPEDTAVYYCAADQSTVLDVGSWGQGTQVTVSS | low polyreactivity
42 | QVQLVESGGGLVQAGGSLRLSCAASGFTFNGYAMGWYRQAPGKERELVAGITRRGGITYYADSVKGRFTISRDNAKNTVYLQMNCLKPEDTAVYYCARDYIGHALIHHASLYYYWGQGTQVTVSS | high polyreactivity
43 | QVQLVESGGGLVQAGGSLRLSCAASGRIFFVNAMGWYRQAPGKERELVAAISRGGSTNYADSVKGRFTISRDNAKNTVYLQMNSLKPEDTAVFYCNADGSSYWYPVPLDGGDYWGQGTQVTVSS | low polyreactivity
